Source: publication PMC9482650, “Quantitative fragmentomics allow affinity mapping of interactomes” (Nature Communications, 2022)

T1: DLG3_1, Q92796
T1 sequence (Q92796 125-227, limits assumed, looked up): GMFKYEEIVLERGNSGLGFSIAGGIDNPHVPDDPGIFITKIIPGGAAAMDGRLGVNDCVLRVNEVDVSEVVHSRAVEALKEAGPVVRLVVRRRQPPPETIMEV

T2: HTRA3, P83110
T2 sequence (P83110 354-453, limits assumed, looked up): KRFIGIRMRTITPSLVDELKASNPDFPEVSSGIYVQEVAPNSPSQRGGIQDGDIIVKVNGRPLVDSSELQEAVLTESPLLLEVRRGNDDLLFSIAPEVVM

T3: LIN7B, Q9HAP6
T3 sequence (Q9HAP6 88-185, limits assumed, looked up): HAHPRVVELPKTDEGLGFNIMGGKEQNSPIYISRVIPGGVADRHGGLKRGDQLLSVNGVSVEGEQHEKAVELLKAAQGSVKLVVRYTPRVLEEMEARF

T4: PCLO, Q9Y6V0
T4 sequence (Q9Y6V0 4491-4600, limits assumed, looked up): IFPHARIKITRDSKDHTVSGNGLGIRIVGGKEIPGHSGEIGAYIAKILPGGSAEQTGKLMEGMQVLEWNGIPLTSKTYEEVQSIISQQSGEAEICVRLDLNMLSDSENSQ

T5: PDZD2_2, O15018
T5 sequence (O15018 329-429, limits assumed, looked up): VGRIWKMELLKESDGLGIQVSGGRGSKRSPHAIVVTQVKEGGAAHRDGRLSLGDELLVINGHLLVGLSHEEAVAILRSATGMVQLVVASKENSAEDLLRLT

T6: RAPGEF6, Q8TEU7
T6 sequence (Q8TEU7 525-625, limits assumed, looked up): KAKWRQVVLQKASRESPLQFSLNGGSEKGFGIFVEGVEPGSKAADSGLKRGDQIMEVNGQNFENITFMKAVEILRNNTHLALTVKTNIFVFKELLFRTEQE

T7: SNTG1, Q9NSN8
T7 sequence (Q9NSN8 52-150, limits assumed, looked up): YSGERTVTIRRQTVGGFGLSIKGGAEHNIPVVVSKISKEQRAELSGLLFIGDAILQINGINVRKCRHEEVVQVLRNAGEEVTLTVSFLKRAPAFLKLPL

T8: TIAM2, Q8IVF5
T8 sequence (Q8IVF5 885-986, limits assumed, looked up): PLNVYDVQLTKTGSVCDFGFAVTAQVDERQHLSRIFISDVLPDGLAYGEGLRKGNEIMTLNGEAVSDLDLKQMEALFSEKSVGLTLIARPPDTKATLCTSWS

T9: TX1BP3, O14907
T9 sequence (O14907 10-122, limits assumed, looked up): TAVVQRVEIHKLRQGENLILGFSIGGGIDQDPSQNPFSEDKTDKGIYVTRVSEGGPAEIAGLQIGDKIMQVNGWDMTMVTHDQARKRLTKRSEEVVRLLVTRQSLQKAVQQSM


Key:
Test in all cases: holdup assay
Set-up in all cases: key: below the threshold = too weak to quantify, mostly under pKd 3.1 to 4
Settings in all cases: plain residues with an end cap or a label only (N-terminal biotin on a linker: ado-ado)
DLG3_1, Q92796 = target: T1, DLG3_1, Q92796
DLG4_2, P78352 = target: DLG4_2, P78352
Sequence of DLG4_2, P78352 (P78352 155-259): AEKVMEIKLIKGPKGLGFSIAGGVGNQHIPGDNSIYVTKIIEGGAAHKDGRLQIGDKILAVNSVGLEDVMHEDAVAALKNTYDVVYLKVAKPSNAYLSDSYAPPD

DLG4_3, P78352 = target: DLG4_3, P78352
Sequence of DLG4_3, P78352 (P78352 306-403): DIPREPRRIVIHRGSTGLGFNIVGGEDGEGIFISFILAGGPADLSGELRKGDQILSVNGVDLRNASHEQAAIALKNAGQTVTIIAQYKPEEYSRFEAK

FRMPD2_1, Q68DX3 = target: FRMPD2_1, Q68DX3
Sequence of FRMPD2_1, Q68DX3 (Q68DX3 770-861): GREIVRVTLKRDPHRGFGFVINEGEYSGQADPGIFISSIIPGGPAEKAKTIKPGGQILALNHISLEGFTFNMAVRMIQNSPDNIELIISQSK

FRMPD2_2, Q68DX3 = target: FRMPD2_2, Q68DX3
Sequence of FRMPD2_2, Q68DX3 (Q68DX3 944-1038): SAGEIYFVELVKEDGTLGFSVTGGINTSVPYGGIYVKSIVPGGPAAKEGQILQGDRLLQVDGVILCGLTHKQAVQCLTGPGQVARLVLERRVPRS

GOPC, Q9HD26 = target: GOPC, Q9HD26
GRIP2_4, Q9C0E4 = target: GRIP2_4, Q9C0E4
Sequence of GRIP2_4, Q9C0E4 (Q9C0E4 446-548): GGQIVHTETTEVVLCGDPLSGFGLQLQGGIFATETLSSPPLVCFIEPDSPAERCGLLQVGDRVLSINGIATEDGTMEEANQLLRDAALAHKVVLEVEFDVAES

HTRA2, O43464 = target: HTRA2, O43464
Sequence of HTRA2, O43464 (O43464 355-458): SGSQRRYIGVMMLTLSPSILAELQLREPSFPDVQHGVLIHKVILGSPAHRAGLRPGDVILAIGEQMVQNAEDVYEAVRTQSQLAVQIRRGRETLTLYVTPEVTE

HTRA3, P83110 = target: T2, HTRA3, P83110
IL16_4, Q14005 = target: IL16_4, Q14005
Sequence of IL16_4, Q14005 (Q14005 1229-1329): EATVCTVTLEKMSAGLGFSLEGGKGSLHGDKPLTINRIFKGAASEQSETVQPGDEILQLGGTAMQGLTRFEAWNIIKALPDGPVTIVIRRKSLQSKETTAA

Inadl_1, Q8NI35 = target: Inadl_1, Q8NI35
Sequence of Inadl_1, Q8NI35 (Q8NI35 113-229): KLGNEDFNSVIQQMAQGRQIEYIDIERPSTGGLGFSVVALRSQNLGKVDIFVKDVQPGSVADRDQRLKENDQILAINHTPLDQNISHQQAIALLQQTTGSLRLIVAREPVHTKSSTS

Inadl_6, Q8NI35 = target: Inadl_6, Q8NI35
Sequence of Inadl_6, Q8NI35 (Q8NI35 1058-1167): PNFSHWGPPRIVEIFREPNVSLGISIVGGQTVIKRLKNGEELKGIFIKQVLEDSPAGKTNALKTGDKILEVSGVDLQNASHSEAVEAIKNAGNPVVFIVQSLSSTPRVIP

Inadl_9, Q8NI35 = target: Inadl_9, Q8NI35
Sequence of Inadl_9, Q8NI35 (Q8NI35 1530-1615): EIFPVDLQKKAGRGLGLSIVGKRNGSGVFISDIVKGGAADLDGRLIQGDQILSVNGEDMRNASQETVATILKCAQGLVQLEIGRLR

LAP2, Q96RT1 = target: LAP2, Q96RT1
Sequence of LAP2, Q96RT1 (Q96RT1 other isoform, or with tags, fused parts or gaps): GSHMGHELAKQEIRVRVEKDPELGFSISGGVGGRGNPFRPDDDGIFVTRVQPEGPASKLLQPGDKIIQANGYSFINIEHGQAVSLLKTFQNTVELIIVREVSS

LIN7B, Q9HAP6 = target: T3, LIN7B, Q9HAP6
LNX1_1, Q8TBB1 = target: LNX1_1, Q8TBB1
Sequence of LNX1_1, Q8TBB1 (Q8TBB1 261-371): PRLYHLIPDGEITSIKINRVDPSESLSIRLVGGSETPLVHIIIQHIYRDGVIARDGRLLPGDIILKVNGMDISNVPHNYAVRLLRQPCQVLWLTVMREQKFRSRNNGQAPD

MAGI2_3, Q86UL8 = target: MAGI2_3, Q86UL8
Sequence of MAGI2_3, Q86UL8 (Q86UL8 600-682): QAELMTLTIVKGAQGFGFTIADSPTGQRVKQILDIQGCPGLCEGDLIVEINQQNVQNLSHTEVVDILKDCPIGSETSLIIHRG

NHERF4_2, Q86UT5 = target: NHERF4_2, Q86UT5
Sequence of NHERF4_2, Q86UT5 (Q86UT5 220-308): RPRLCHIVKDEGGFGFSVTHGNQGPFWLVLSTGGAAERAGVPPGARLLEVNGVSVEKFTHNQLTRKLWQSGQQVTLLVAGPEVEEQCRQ

PCLO, Q9Y6V0 = target: T4, PCLO, Q9Y6V0
PDLIM1, O00151 = target: PDLIM1, O00151
Sequence of PDLIM1, O00151 (O00151 1-87): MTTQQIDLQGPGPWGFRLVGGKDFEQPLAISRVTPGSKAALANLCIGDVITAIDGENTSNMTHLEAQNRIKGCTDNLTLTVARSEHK

PDZD2_2, O15018 = target: T5, PDZD2_2, O15018
RAPGEF6, Q8TEU7 = target: T6, RAPGEF6, Q8TEU7
SCRIB_3, Q14160 = target: SCRIB_3, Q14160
Sequence of SCRIB_3, Q14160 (Q14160 999-1103): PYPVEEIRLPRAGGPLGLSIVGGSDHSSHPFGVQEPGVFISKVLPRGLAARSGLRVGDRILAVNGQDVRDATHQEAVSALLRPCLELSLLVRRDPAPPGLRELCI

SNTG1, Q9NSN8 = target: T7, SNTG1, Q9NSN8
TIAM2, Q8IVF5 = target: T8, TIAM2, Q8IVF5
TJP1_3, Q07157 = target: TJP1_3, Q07157
Sequence of TJP1_3, Q07157 (Q07157 416-512): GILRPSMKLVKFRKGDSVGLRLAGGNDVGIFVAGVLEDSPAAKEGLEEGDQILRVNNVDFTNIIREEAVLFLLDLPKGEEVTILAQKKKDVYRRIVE

TJP2_1, Q9UDY2 = target: TJP2_1, Q9UDY2
Sequence of TJP2_1, Q9UDY2 (Q9UDY2 24-128): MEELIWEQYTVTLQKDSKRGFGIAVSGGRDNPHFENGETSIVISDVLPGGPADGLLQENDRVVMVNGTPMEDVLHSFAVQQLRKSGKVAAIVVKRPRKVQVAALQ

TX1BP3, O14907 = target: T9, TX1BP3, O14907

Binder | pKd (DLG3_1, Q92796) | pKd (DLG4_2, P78352) | pKd (DLG4_3, P78352) | pKd (FRMPD2_1, Q68DX3) | pKd (FRMPD2_2, Q68DX3) | pKd (GOPC, Q9HD26) | pKd (GRIP2_4, Q9C0E4) | pKd (HTRA2, O43464) | pKd (HTRA3, P83110) | pKd (IL16_4, Q14005) | pKd (Inadl_1, Q8NI35) | pKd (Inadl_6, Q8NI35) | pKd (Inadl_9, Q8NI35) | pKd (LAP2, Q96RT1) | pKd (LIN7B, Q9HAP6) | pKd (LNX1_1, Q8TBB1) | pKd (MAGI2_3, Q86UL8) | pKd (NHERF4_2, Q86UT5) | pKd (PCLO, Q9Y6V0) | pKd (PDLIM1, O00151) | also measured
ARSAAASNYV [CLDN4, O14493] | below the threshold | below the threshold | below the threshold | below the threshold | below the threshold | below the threshold | below the threshold | below the threshold | 4.15 | below the threshold | below the threshold | below the threshold | 3.71 | below the threshold | below the threshold | 3.57 | below the threshold | below the threshold | below the threshold | below the threshold | pKd (PDZD2_2, O15018): 4.49; pKd (RAPGEF6, Q8TEU7): below the threshold; pKd (SCRIB_3, Q14160): below the threshold; pKd (SNTG1, Q9NSN8): below the threshold; pKd (TIAM2, Q8IVF5): below the threshold; pKd (TJP1_3, Q07157): below the threshold; pKd (TJP2_1, Q9UDY2): 3.92; pKd (TX1BP3, O14907): below the threshold
PTPDLPQTRV [KLHDC7A, Q5VTJ3] | below the threshold | 3.5 | 3.72 | below the threshold | 3.8 | 4.89 | below the threshold | below the threshold | below the threshold | 3.5 | below the threshold | below the threshold | 3.51 | below the threshold | 3.89 | 3.89 | 3.77 | below the threshold | below the threshold | below the threshold | pKd (PDZD2_2, O15018): 3.75; pKd (RAPGEF6, Q8TEU7): below the threshold; pKd (SCRIB_3, Q14160): below the threshold; pKd (SNTG1, Q9NSN8): 4.36; pKd (TIAM2, Q8IVF5): 3.86; pKd (TJP1_3, Q07157): below the threshold; pKd (TJP2_1, Q9UDY2): below the threshold; pKd (TX1BP3, O14907): below the threshold
NTLNRKTTPV [CACNG8, Q8WXS5] | 3.58 | 4.94 | 4.89 | below the threshold | 3.85 | 3.72 | 3.52 | below the threshold | below the threshold | 3.59 | below the threshold | below the threshold | below the threshold | below the threshold | below the threshold | 3.66 | 3.85 | 3.53 | below the threshold | below the threshold | pKd (PDZD2_2, O15018): 3.81; pKd (RAPGEF6, Q8TEU7): below the threshold; pKd (SCRIB_3, Q14160): 3.88; pKd (SNTG1, Q9NSN8): below the threshold; pKd (TIAM2, Q8IVF5): below the threshold; pKd (TJP1_3, Q07157): below the threshold; pKd (TJP2_1, Q9UDY2): 4.05; pKd (TX1BP3, O14907): 5.01
ARGPPRESEV [FAM110D, Q8TAY7] | 4.3 | 5.63 | 4.42 | below the threshold | 3.5 | 3.51 | below the threshold | below the threshold | below the threshold | below the threshold | below the threshold | below the threshold | 3.53 | 4.37 | below the threshold | 3.78 | 3.53 | below the threshold | below the threshold | 3.71 | pKd (PDZD2_2, O15018): 4.83; pKd (RAPGEF6, Q8TEU7): below the threshold; pKd (SCRIB_3, Q14160): 4.63; pKd (SNTG1, Q9NSN8): 5.23; pKd (TIAM2, Q8IVF5): below the threshold; pKd (TJP1_3, Q07157): below the threshold; pKd (TJP2_1, Q9UDY2): below the threshold; pKd (TX1BP3, O14907): 5.24
